From US20170022281A1 (AbbVie / Abbott, published 2017) come the findings set out here.

Test [1] deals with T1, cyno PRLR ECD-his6 protein (cyno).
T1 chain: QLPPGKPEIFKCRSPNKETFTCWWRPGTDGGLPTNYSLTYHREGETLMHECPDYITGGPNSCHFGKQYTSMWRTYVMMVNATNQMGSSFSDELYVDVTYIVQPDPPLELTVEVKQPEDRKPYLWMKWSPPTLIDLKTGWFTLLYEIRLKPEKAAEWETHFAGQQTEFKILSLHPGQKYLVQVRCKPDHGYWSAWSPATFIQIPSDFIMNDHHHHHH
Nature of the test: ELISA on ECD. On the procedure:
(§1) Plates were blocked for 1 hour with Superblock (Pierce) and washed (3×) with wash buffer (lx PBS (pH 7.4), 0.05% Tween 20). ECD proteins were bound to the appropriate antibody (1 hour) in binding buffer (wash buffer plus 10% Superblock), washed (3×, wash buffer), and then incubated with serial dilutions of antibodies (1 hour) in binding buffer. After washing (3×, wash buffer), secondary antibodies conjugated to HRP were bound (1 hour) in binding buffer, washed (3×, wash buffer), and incubated with TMB substrate (Pierce) to develop signal for 3-5 minutes, stopped with 2N H₂SO₄ and scanned at […]. Curves were fit with GraphPad 5 (Prizm) and EC50's were determined with curve fitting function of GraphPad 5.

Test [2] concerns the target T2, human PRLR ECD-Fc fusion protein (human, UniProt P16471 25-233).
T2 construct: not shown: Fc region (captured by goat anti-human Fc)
T2 sequence: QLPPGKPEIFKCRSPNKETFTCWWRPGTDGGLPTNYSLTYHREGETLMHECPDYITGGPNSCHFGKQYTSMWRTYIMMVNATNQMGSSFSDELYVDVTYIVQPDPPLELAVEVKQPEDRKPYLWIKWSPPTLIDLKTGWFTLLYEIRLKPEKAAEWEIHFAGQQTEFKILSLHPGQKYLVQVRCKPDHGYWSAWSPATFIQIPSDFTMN
The test can be described thus: ELISA on ECD. On the procedure: as §1
On the technique in general: In an ELISA, binding on a coated surface is turned into a signal by an enzyme label.

Test [3] concerns the target T3, mouse PRLR on Baf3-mPRLR cells (mouse, UniProt Q08501 20-608).
T3 sequence (looked up): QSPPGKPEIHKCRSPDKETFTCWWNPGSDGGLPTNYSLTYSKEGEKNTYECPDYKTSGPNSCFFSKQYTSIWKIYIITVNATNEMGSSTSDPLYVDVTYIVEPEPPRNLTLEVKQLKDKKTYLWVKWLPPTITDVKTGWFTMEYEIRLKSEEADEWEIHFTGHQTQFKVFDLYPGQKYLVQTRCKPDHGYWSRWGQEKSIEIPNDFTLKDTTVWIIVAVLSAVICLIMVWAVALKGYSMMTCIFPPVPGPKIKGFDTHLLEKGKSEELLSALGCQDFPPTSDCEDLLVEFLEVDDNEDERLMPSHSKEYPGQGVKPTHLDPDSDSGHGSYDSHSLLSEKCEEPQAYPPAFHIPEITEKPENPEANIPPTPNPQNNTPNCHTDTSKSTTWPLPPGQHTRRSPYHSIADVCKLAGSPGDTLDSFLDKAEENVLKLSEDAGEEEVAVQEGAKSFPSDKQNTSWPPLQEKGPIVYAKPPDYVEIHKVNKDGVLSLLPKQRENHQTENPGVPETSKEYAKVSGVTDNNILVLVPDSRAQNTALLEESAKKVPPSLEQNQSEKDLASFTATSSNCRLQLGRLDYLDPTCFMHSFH
Nature of the test: cell-based or functional assay.

Test [4] concerns the target T4, human PRLR on cells (human, UniProt P16471 25-622).
T4 sequence: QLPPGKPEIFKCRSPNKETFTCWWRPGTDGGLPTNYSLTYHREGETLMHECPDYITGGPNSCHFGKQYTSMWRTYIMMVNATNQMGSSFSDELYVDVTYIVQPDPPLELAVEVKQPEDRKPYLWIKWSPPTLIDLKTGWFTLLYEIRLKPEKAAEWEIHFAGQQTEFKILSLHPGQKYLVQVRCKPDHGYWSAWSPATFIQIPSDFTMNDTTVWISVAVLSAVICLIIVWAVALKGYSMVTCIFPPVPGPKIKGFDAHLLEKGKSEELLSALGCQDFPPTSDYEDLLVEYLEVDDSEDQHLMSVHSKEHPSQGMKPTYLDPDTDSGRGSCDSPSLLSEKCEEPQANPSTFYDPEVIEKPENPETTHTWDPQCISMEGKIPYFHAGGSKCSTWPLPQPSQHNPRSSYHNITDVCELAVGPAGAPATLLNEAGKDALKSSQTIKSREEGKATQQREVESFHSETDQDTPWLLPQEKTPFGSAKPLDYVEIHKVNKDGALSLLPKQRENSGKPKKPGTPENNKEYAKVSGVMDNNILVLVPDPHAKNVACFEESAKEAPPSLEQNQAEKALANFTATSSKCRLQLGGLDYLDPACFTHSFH
The test can be described thus: cell-based or functional assay.

The target of test [5] is cyno PRLR on Baf3-cyPRLR cells (cyno). The test can be described thus: cell-based or functional assay.
Test [6] deals with T5, human PRLR (Biacore antigen) (human, UniProt P16471 25-234, limits assumed).
T5 construct: The construct injected over captured antibody is not described (a soluble form is likely); also called huPRLR
T5 sequence: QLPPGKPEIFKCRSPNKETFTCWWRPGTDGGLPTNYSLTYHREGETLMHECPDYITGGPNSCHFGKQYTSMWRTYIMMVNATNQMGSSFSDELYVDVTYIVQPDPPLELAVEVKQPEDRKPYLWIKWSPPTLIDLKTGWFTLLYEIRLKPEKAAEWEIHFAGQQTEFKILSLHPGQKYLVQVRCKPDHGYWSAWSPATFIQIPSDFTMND
The test can be described thus: SPR Biacore. In a few lines:
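Association rate, dissociation rate and dissociation constant were measured by surface plasmon resonance on a Biacore instrument. PRLR antigen was tested at 600 nM, 66.67 nM and 7.41 nM, a 3-point, 9-fold dilution series. Constants came from a 1:1 binding model fit (local Rmax, mass-transport term included) in Biacore T200 Evaluation Software.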

B1: Ab14 (antibody, human IgG1, kappa, V domains shown)
VH: EVQLVQSGAEVKKPGSSVKVSCKASGYTFTTYWMHWVRQAPGQGLEWMGEIDPSDSYSNYNQKFKDRVTITADKSTSTAYMELSSLRSEDTAVYYCARNGGLGPAWFSYWGQGTLVTVSS
VL: DIQMTQSPSSVSASVGDRVTITCKASQYVGTAVAWYQQKPGKAPKLLIYSASNRYTGVPSRFSGSGSGTDFTLTISSLQPEDFATYYCQQYSSYPWTFGGGTKVEIKR
notes: humanized from Ab6; G1; also called Ab1 HC.1 & Ab1 LC.1
As a reminder, the EC50 is the concentration giving half of the maximal effect. A lower EC50 goes with higher potency in that assay. Usually Kd stands for the constant that tells how readily two partners part at equilibrium. Read a high Kd as a looser complex. By koff is commonly meant the first-order rate constant of dissociation. Low values mean slow dissociation, high ones fast dissociation. One may read the kon as the second-order rate constant of association. Read a high kon as fast association. With B1, the EC50 in test [1] amounted to 31 pM. Besides, the response in test [2] was half-maximal at 32.9 pM (EC50). Besides, the “Baf3-mPRLR proliferation IC50” value in test [3] was over 30 µg/mL. In addition, the “Baf3-hPRLR proliferation IC50” value in test [4] stood at 0.3 µg/mL. Further, the “Baf3-cyPRLR proliferation IC50” value in test [5] was 1.15 µg/mL. Also, in test [6], the Kd was 4160 pM, the koff is 0.00458 s⁻¹ and the kon worked out at 1.1e+06 M⁻¹ s⁻¹.

B2: Ab16 (antibody, human IgG1, kappa, V domains shown)
VH: EVQLVQSGAEVKKPGSSVKVSCKASGYTFTTYWMHWVRQAPGQGLEWMGEIDPSDSYSNYNQKFKDRVTITADKSTSTAYMELSSLRSEDTAVYYCARNGGLGPAWFSYWGQGTLVTVSS
VL: EIVMTQSPATLSVSPGERATLSCKASQYVGTAVAWYQQKPGQAPRLLIYSASNRYTGIPARFSGSGSGTEFTLTISSLQSEDFAVYYCQQYSSYPWTFGGGTKVEIKR
notes: humanized from Ab6; G1; also called Ab1 HC.1 and Ab1 LC.2
Regarding B2, a half-maximal response in test [1] (EC50) required 67.1 pM. Also, in test [2], a half-maximal response (EC50) required 64.1 pM. Moreover, in test [3], the “Baf3-mPRLR proliferation IC50” value was over 30 µg/mL. The “Baf3-hPRLR proliferation IC50” value in test [4] came out at 0.46 µg/mL. Besides, the “Baf3-cyPRLR proliferation IC50” value in test [5] came out at 1.73 µg/mL. Further, in test [6], the Kd was 4050 pM, the dissociation rate constant (koff) was found to be 0.00562 s⁻¹ and the kon came out at 1.39e+06 M⁻¹ s⁻¹.

B3: Ab17 (antibody, human IgG1, kappa, V domains shown)
VH: EVQLVQSGAEVKKPGSSVKVSCKASGYTFTTYWMHWVRQAPGQGLEWMGEIDPSDSYSNYNQKFKDRVTITADKSTSTAYMELSSLRSEDTAVYYCARNGGLGPAWFSYWGQGTLVTVSS
VL: EIVMTQSPATLSVSPGERATLSCKASQYVGTAVAWYQQKPGQSPRLLIYSASNRYTGVPARFSDSGSGTEFTLTISSLQSEDFAVYFCQQYSSYPWTFGGGTKVEIKR
notes: humanized from Ab6; G1; also called Ab1 HC.1 and Ab1 LC.2a
Turning to B3, in test [1], the EC50 is 78.8 pM. This molecule also had an EC50 in test [2] of 76.6 pM. Moreover, in test [3], the “Baf3-mPRLR proliferation IC50” value is over 30 µg/mL. Besides, the “Baf3-hPRLR proliferation IC50” value in test [4] came out at 0.14 µg/mL. Moreover, in test [5], the “Baf3-cyPRLR proliferation IC50” value is 0.27 µg/mL. In test [6], binding was put at a Kd of 1060 pM, the koff is 0.00132 s⁻¹ and the kon was 1.25e+06 M⁻¹ s⁻¹.

B4: Ab15 (antibody, human IgG1, kappa, V domains shown)
VH: EVQLVQSGAEVKKPGSSVKVSCKASGYTFTTYWMHWVRQAPGQGLEWMGEIDPSDSYSNYNQKFKDRVTITADKSTSTAYMELSSLRSEDTAVYYCARNGGLGPAWFSYWGQGTLVTVSS
VL: DIQMTQSPSSVSASVGDRVTITCKASQYVGTAVAWYQQKPGKSPKLLIYSASNRYTGVPSRFSDSGSGTDFTLTISSLQPEDFATYFCQQYSSYPWTFGGGTKVEIKR
notes: humanized from Ab6; G1; also called Ab1 HC.1 and Ab1 LC.1a
In the case of B4, the half-maximal effective concentration (EC50) in test [1] is 55.1 pM. The same molecule returned an EC50 in test [2] of 78.1 pM. In test [3], the “Baf3-mPRLR proliferation IC50” value is over 30 µg/mL. Also, in test [4], the “Baf3-hPRLR proliferation IC50” value worked out at 0.13 µg/mL. Moreover, in test [5], the “Baf3-cyPRLR proliferation IC50” value was 0.19 µg/mL. Moreover, in test [6], the Kd was 837 pM, the koff stood at 0.000972 s⁻¹ and the kon was determined as 1.16e+06 M⁻¹ s⁻¹.

B5: Ab18 (antibody, human IgG1, kappa, V domains shown)
VH: EVQLVQSGAEVKKPGSSVKVSCKASGYTFTTYWMHWVRQAPGQGLEWIGEIDPSDSYSNYNQKFKDRATLTVDKSTSTAYMELSSLRSEDTAVYYCARNGGLGPAWFSYWGQGTLVTVSS
VL: DIQMTQSPSSVSASVGDRVTITCKASQYVGTAVAWYQQKPGKAPKLLIYSASNRYTGVPSRFSGSGSGTDFTLTISSLQPEDFATYYCQQYSSYPWTFGGGTKVEIKR
notes: humanized from Ab6; G1; also called Ab1 HC.1a and Ab1 LC.1
Turning to B5, the EC50 in test [1] is 111 pM. The molecule also showed an EC50 in test [2] of 67.5 pM. Moreover, in test [3], the “Baf3-mPRLR proliferation IC50” value is over 30 µg/mL. The “Baf3-hPRLR proliferation IC50” value in test [4] was determined as 0.15 µg/mL. Besides, in test [5], the “Baf3-cyPRLR proliferation IC50” value is 0.4 µg/mL. In addition, in test [6], the Kd amounted to 1620 pM, the koff was found to be 0.00171 s⁻¹ and the kon was found to be 1.06e+06 M⁻¹ s⁻¹.

B6: Ab44 (antibody, human IgG1, kappa, V domains shown)
VH: EVQLVQSGAEVKKPGASVKVSCKASGYTFTDYNIHWVRQAPGQGLEWMGYIYPNNDGTGYNQKFKSRVTMTTDTSTSTAYMELRSLRSDDTAVYYCARGDGNYVGDMDYWGQGTTVTVSS
VL: DIQMTQSPSSLSASVGDRVTITCRASENIYSYLAWYQQKPGKAPKLLIYNAKTLAEGVPSRFSGSGSGTDFTLTISSLQPEDFATYYCQHHYATPFTFGQGTKLEIKR
notes: humanized from Ab8; G1; also called Ab3 HC.1 and Ab3 LC.1
With B6, the concentration giving a half-maximal response (EC50) in test [1] came out at 94.5 pM; in test [2] it was 43.5 pM. For the same molecule, the “Baf3-mPRLR proliferation IC50” value in test [3] was over 30 µg/mL. In addition, the “Baf3-hPRLR proliferation IC50” value in test [4] was determined as 0.3 µg/mL. Besides, the “Baf3-cyPRLR proliferation IC50” value in test [5] came out at 1.76 µg/mL.

B7: Ab47 (antibody, human IgG1, kappa, V domains shown)
VH: EVQLVQSGAEVKKPGASVKVSCKASGYTFTDYNIHWVRQAPGQGLEWIGYIYPNNDGTGYNQKFKSRATLTVDNSTSTAYMELRSLRSDDTAVYYCARGDGNYVGDMDYWGQGTTVTVSS
VL: DIQMTQSPSSLSASVGDRVTITCRASENIYSYLAWYQQKPGKAPKLLIYNAKTLAEGVPSRFSGSGSGTDFTLTISSLQPEDFATYYCQHHYATPFTFGQGTKLEIKR
notes: humanized from Ab8; G1; also called Ab3 HC.1a and Ab3 LC.1
With B7, the results for the EC50 in test [1] and in test [2] were 119 pM and 81.9 pM, respectively. Further, the “Baf3-mPRLR proliferation IC50” value in test [3] is over 30 µg/mL. For the same molecule, the “Baf3-hPRLR proliferation IC50” value in test [4] stood at 0.4 µg/mL. For the same molecule, the “Baf3-cyPRLR proliferation IC50” value in test [5] stood at 3.01 µg/mL.
